Measured values reported in patent EP4631972A1, “SITE-SPECIFIC COUPLED PEGYLATED INTERLEUKIN-2 MUTANT WITH RECEPTOR AFFINITY PREFERENCE AND USE THEREOF” (priority 2022, dated 2024).

How the values were obtained:
Treg cells [1] = assay: P-STAT5 activation in Treg cells of human PBMCs (flow cytometry); type: cell-based; details: P-STAT5 MFI in CD3+/CD4+/CD25+ cells of human PBMCs, 30 min stimulation
Description: In the example, the activation effect of each mutant prepared in Example 6 on P-STAT5 in different cell subsets (Tregs, CD8+T cells, NK cells) from human PBMCs (Miaoshun Biotechnology) was detected.
Human PBMC cells were thawed and resuspended to 1.5×10^6 cells/ml in RPMI1640 medium containing 10% FBS. 100 µl was added to each well of a V-bottom 96-well culture plate. Each IL-2 mutant prepared in Example 6 was diluted 10-fold in series: 1000 nM was used as the working concentration for the first well, and then 100 µl/well of each serial dilution was added to each cultured cell, stimulated at 37°C for 30 min, and the reaction was terminated on ice. The cells were treated with a commercial fixative and permeabilization agent (BD biosciences 558049 & 558050), and stained with antibodies against CD3, CD4, CD25, and CD8 according to conventional methods. P-STAT5 antibody staining was also performed (Table 7) to detect the mean fluorescence intensity (MFI) of P-STAT5 in CD3+/CD4+/CD25+ (Treg cells) and CD8+/CD3+ cells ([…]) by flow cytometry.

Treg cells [2] = assay: Pharmacodynamic (PD) study in mice, peripheral Treg cells; type: in vivo, Balb/c mice; details: 1 mg/kg s.c. single administration
Description: In this example, the pharmacodynamics (PD) of each IL-2 mutant obtained in Example 6 was studied in mice after a single administration to mice. SPF grade Balb/c mice were purchased and randomly divided into groups according to body weight, with 3 mice in each group. Drug administration started on the day of grouping. The dosing and grouping information is shown in Table 9, where G1-G5 were administered once, G6 and G7 were administered once a day, for a total of three doses. 30 µl of blood was taken from each group of mice, for PEGylated IL2 mutants and the negative control, blood was collected on day 0 (pre-administration), day 2, 3, 4, 5, 6 and 7 (only for G3, G4 and G5), and for IL2 and IL2-N88R, blood was collected on day 0 (pre-administration), day 1, 2 and 3. The number of each cell subpopulation was measured by flow cytometry. Antibodies against the staining marker used in flow cytometry are shown in Table 10, and the gating settings are shown in Table 11. Table 9 Dosing and grouping table for single-dose PD study in mice

Treg cells [3] = assay: Pharmacodynamic study in cynomolgus monkeys, peripheral Treg cells; type: in vivo; details: doses ≤400 µg/kg
Text: For information on administration and grouping, see Table 14.

[4] = Pharmacokinetic study in cynomolgus monkeys; details: cynomolgus monkey
Description: Blood was collected before and after administration (4h, 8h, 24h, 48h, 72h, 120h, 168h, 240h, 336h) in the first cycle and after administration (8h, 24h, 48h, 72h, 120h, 168h, 240h) in the second cycle to detect plasma drug concentration.

[5] = Effects on body weight and physiological characteristics of mice; details: 1 mg/kg s.c. once every three days, three times
Description: SPF grade Balb/c mice were purchased, with 3 mice in each group. Administration was started on the day of grouping. The test substance or PBS (negative control group) was administered subcutaneously at a dose of 1 mg/kg, once every three days, for a total of three times. The mice were weighed before each administration and three days after the third administration .

[6] = Pharmacokinetic study in mice, single administration, plasma concentration by ELISA; details: 1 mg/kg s.c. single administration
Description: Balb/c mice were purchased, with 4 mice in each group. Each IL-2 mutant to be tested was administered subcutaneously once at a dose of 1 mg/kg. Blood was collected from the orbit at different time points after administration, and the plasma was separated and the plasma drug concentration was detected by ELISA. The main pharmacokinetic parameters were calculated, and C-T curve was plotted.

[7] = female, first-cycle dosing 50 µg/kg s.c.
[8] = female, second-cycle dosing 400 µg/kg s.c.
[9] = male, first-cycle dosing 50 µg/kg s.c.
[10] = male, second-cycle dosing 400 µg/kg s.c.

B1: 80K-1PEG-IL2-N88R-N77C: IL-2 mutant N88R, N77C, conjugation site 77, PEG molecular weight 80kD (conjugate)
chain: APTSSSTKKTQLQLEHLLLDLQMILNGINNYKNPKLTRMLTFKFYMPKKATELKHLQCLEEELKPLEEVLNLAQSKC(PEG 80 kDa)FHLRPRDLISRINVIVLELKGSETTFMCEYADETATIVEFLNRWITFSQSIISTLT
For B1, the EC50 (Treg cells [1]) was 0.0298 µM, the “activation peak of Treg proportion, time” value (Treg cells [2]) was 6 days and the “increase in Treg proportion at peak” value (Treg cells [2]) was “about 15 fold”. For the same molecule, the “activation and proliferation of peripheral blood Treg cells” value (Treg cells [3]) was “clear activation and proliferation”, the AUC inf [4, 7] was 186.0556 µg·h/mL and the AUClast [4, 7] was 147.9248 µg·h/mL. It also gave a CL [4, 7] of 0.27, a Cmax [4, 7] of 0.9025692 µg/mL and an MRT [4, 7] of 122.9092 h. The Tmax [4, 7] was 8 h, the AUC inf [4, 8] was 2286.053 µg·h/mL and the AUClast [4, 8] was 1481.823 µg·h/mL. For the same molecule, the CL [4, 8] was 0.17, the Cmax [4, 8] was 8.785158 µg/mL and the MRT [4, 8] was 103.1 h. It also gave a Tmax [4, 8] of 8 h, an AUC inf [4, 9] of 278.1948 µg·h/mL and an AUClast [4, 9] of 184.7575 µg·h/mL. The CL [4, 9] was 0.18, the Cmax [4, 9] was 0.8244732 µg/mL and the MRT [4, 9] was 142.9087 h. The Tmax [4, 9] was 48 h, the AUC inf [4, 10] was 2635.62 µg·h/mL and the AUClast [4, 10] was 1885.448 µg·h/mL. The CL [4, 10] was 0.15, the Cmax [4, 10] was 11.43293 µg/mL and the MRT [4, 10] was 102.1 h. The Tmax [4, 10] was 48 h, the “toxic side effects on mice” value [5] was “less toxic side effects” and the “visual observation of the mice” value [5] was “in good condition”. For the same molecule, the “body weight compared with negative control” value ([5]; three days after the third dose) was “not significantly different from that of the negative control”, the AUC inf [6] was 463.63062 ± 37.7282 µg·h/mL and the AUClast [6] was 437.8594 ± 41.0906 µg·h/mL. The CL [6] was 2.17±0.18, the Cmax [6] was 8.41872 ± 0.4914 µg/mL and the MRT [6] was 40.08 ± 2.1 h. The Tmax [6] was 24 h, the mean half-life [6] was 25.23 h and the “mean residence time (MRT)” value [6] was 40.08 h.
